The source of these data is the Human Domainome abundance scans (Beltran et al. 2025).

± gives the uncertainty stated by the source.

B1: Protein piccolo, residues 1058 to 1114; numbered along this chain, Q9Y6V0 (parent)
chain: TCPLCKTELNIGSKDPPNFNTCTECKNQVCNLCGFNPTPHLTEIQEWLCLNCQTQRA

This series covers variants of B1. As to the kind of experiment: abundance fitness (aPCA) (normalised: wild type 0, dead -1); higher = more abundant; growth selection in yeast, the domain comes from the species named. The settings on record: Homo sapiens.
Regarding TCPLCKTELNIGSKDPPNFNTCTECKNQVCNLCGFNPTPHLTETQEWLCLNCQTQRA [I44T], the abundance fitness is -0.273 ± 0.17. On to TCPLCKTELNIGSKDPPNFNTCTECKNQVCNLCGFNPTPHLTECQEWLCLNCQTQRA [I44C], for which the abundance fitness stood at 0.026 ± 0.2. The same measure for TCPLCKTELNIGSKDPPNFNTITECKNQVCNLCGFNPTPHLTEIQEWLCLNCQTQRA [C22I]: -1.04 ± 0.2; for TCPLCKTELNFGSKDPPNFNTCTECKNQVCNLCGFNPTPHLTEIQEWLCLNCQTQRA [I11F]: -0.063 ± 0.11.

As to TCPLCKTELNLGSKDPPNFNTCTECKNQVCNLCGFNPTPHLTEIQEWLCLNCQTQRA [I11L], the abundance fitness is -0.22 ± 0.088. The same measure for TCPLCKTELNTGSKDPPNFNTCTECKNQVCNLCGFNPTPHLTEIQEWLCLNCQTQRA [I11T]: -0.099 ± 0.15; for TCPLCKTELNEGSKDPPNFNTCTECKNQVCNLCGFNPTPHLTEIQEWLCLNCQTQRA [I11E]: 0.172 ± 0.14. As for TCPLCKTELNVGSKDPPNFNTCTECKNQVCNLCGFNPTPHLTEIQEWLCLNCQTQRA [I11V], the abundance fitness was -0.046 ± 0.098.

In the case of TCPLCKTELNAGSKDPPNFNTCTECKNQVCNLCGFNPTPHLTEIQEWLCLNCQTQRA [I11A], the abundance fitness was -0.153 ± 0.1. In the case of TCPLCKTELNIGSKDPPNFTTCTECKNQVCNLCGFNPTPHLTEIQEWLCLNCQTQRA [N20T], the abundance fitness is 0.067 ± 0.12. On to TCPLCKTELNIGSKDPPNFITCTECKNQVCNLCGFNPTPHLTEIQEWLCLNCQTQRA [N20I], for which the abundance fitness is -0.115 ± 0.14.

With TCPLCKTELNIGSKDPPNFCTCTECKNQVCNLCGFNPTPHLTEIQEWLCLNCQTQRA [N20C], the abundance fitness is -0.091 ± 0.11. Regarding TCPLCKTELNIGSKDPPNFNTCTNCKNQVCNLCGFNPTPHLTEIQEWLCLNCQTQRA [E24N], the abundance fitness is -0.184 ± 0.13.

With TCPLCKTELNIGSKDPPNFNTCTVCKNQVCNLCGFNPTPHLTEIQEWLCLNCQTQRA [E24V], the abundance fitness was 0.001 ± 0.086.

On to TCPLCKTELNIGSKDPPNFNTCTECKNQVCNLCGFNPTPHLTEIQVWLCLNCQTQRA [E46V], for which the abundance fitness was -0.033 ± 0.12. In the case of TCPLCKTELNIGSKDPPNFNTCTECKNQVCNLWGFNPTPHLTEIQEWLCLNCQTQRA [C33W], the abundance fitness is -1.01 ± 0.12. As for TCPLCKTELNIGSKDPPNFNTCTELKNQVCNLCGFNPTPHLTEIQEWLCLNCQTQRA [C25L], the abundance fitness was -0.846 ± 0.082. With TCPLCKTELNIGSKDPPNFNPCTECKNQVCNLCGFNPTPHLTEIQEWLCLNCQTQRA [T21P], the abundance fitness was -0.169 ± 0.14. For TCPLCKTELNIGSKDPPNFNECTECKNQVCNLCGFNPTPHLTEIQEWLCLNCQTQRA [T21E], the abundance fitness worked out at 0.036 ± 0.12. In the case of TCPLCKTELNIGSKDPPNFNTCTECKNQVCNLCGFNSTPHLTEIQEWLCLNCQTQRA [P37S] it was 0.016 ± 0.1; in that of TCPLCKTELNIGSKDPPNFNTCTECKNCVCNLCGFNPTPHLTEIQEWLCLNCQTQRA [Q28C], 0.018 ± 0.11. Take TCPLCKTELNIGSKDPPNFNTCTECKNTVCNLCGFNPTPHLTEIQEWLCLNCQTQRA [Q28T]: the abundance fitness is -0.015 ± 0.13. In the case of TCPLCKTELNIGSKDPPNFNTCTECKNIVCNLCGFNPTPHLTEIQEWLCLNCQTQRA [Q28I], the abundance fitness is -0.579 ± 0.21. As for TCPLCKTELNIGSKDPPNFNTCTECKNQVCNLCGFHPTPHLTEIQEWLCLNCQTQRA [N36H], the abundance fitness worked out at 0.313 ± 0.24.

As for TCPLCKTELNIGSKDPPNFNTCTECKNQVCNLCGFMPTPHLTEIQEWLCLNCQTQRA [N36M], the abundance fitness was 0.033 ± 0.13.

Consider TCPLCKTELNIGSKDWPNFNTCTECKNQVCNLCGFNPTPHLTEIQEWLCLNCQTQRA [P16W], for which the abundance fitness was -0.541 ± 0.13.

Consider TCPLCKTELNIGSKDPPNFNTCTECKNQVCNLCGFNPTPHLGEIQEWLCLNCQTQRA [T42G], for which the abundance fitness came to 0.122 ± 0.1. Turning to TCPLCKKELNIGSKDPPNFNTCTECKNQVCNLCGFNPTPHLTEIQEWLCLNCQTQRA [T7K], the abundance fitness was determined as 0.043 ± 0.12. In the case of TCPLCKYELNIGSKDPPNFNTCTECKNQVCNLCGFNPTPHLTEIQEWLCLNCQTQRA [T7Y] it was -0.34 ± 0.1; in that of TNPLCKTELNIGSKDPPNFNTCTECKNQVCNLCGFNPTPHLTEIQEWLCLNCQTQRA [C2N], -0.156 ± 0.18.

For the variant TEPLCKTELNIGSKDPPNFNTCTECKNQVCNLCGFNPTPHLTEIQEWLCLNCQTQRA [C2E], the abundance fitness was -0.557 ± 0.23. For the variant TCPLCKTELNIGSKDPPNFNTCTECKNQVCRLCGFNPTPHLTEIQEWLCLNCQTQRA [N31R], the abundance fitness stood at 0.012 ± 0.088. Regarding TCPLCKTELNIGSKDPPNFNTCTECKNQVCGLCGFNPTPHLTEIQEWLCLNCQTQRA [N31G], the abundance fitness stood at 0.028 ± 0.096. Turning to TCPLCKTECNIGSKDPPNFNTCTECKNQVCNLCGFNPTPHLTEIQEWLCLNCQTQRA [L9C], the abundance fitness was -0.201 ± 0.11.

For TCPLCKTETNIGSKDPPNFNTCTECKNQVCNLCGFNPTPHLTEIQEWLCLNCQTQRA [L9T], the abundance fitness was -0.081 ± 0.11.

As to TCPLCKTELNIGSDDPPNFNTCTECKNQVCNLCGFNPTPHLTEIQEWLCLNCQTQRA [K14D], the abundance fitness is 0.003 ± 0.14. As to TCPLCKTELNIGSMDPPNFNTCTECKNQVCNLCGFNPTPHLTEIQEWLCLNCQTQRA [K14M], the abundance fitness was -0.128 ± 0.18.

For the variant TCPLCKTELNIGSPDPPNFNTCTECKNQVCNLCGFNPTPHLTEIQEWLCLNCQTQRA [K14P], the abundance fitness is -0.116 ± 0.12. In the case of TCPLCKTELNIGSKDPTNFNTCTECKNQVCNLCGFNPTPHLTEIQEWLCLNCQTQRA [P17T], the abundance fitness is -0.464 ± 0.16. In the case of TCPLCKTELNIGSKDPKNFNTCTECKNQVCNLCGFNPTPHLTEIQEWLCLNCQTQRA [P17K] it was 0.127 ± 0.18; in that of TCPLCKTELNIGSKDPYNFNTCTECKNQVCNLCGFNPTPHLTEIQEWLCLNCQTQRA [P17Y], -0.53 ± 0.17; in that of TCPLCKTGLNIGSKDPPNFNTCTECKNQVCNLCGFNPTPHLTEIQEWLCLNCQTQRA [E8G], -0.052 ± 0.071. With TCPLCKTFLNIGSKDPPNFNTCTECKNQVCNLCGFNPTPHLTEIQEWLCLNCQTQRA [E8F], the abundance fitness is -0.431 ± 0.097. TCPLCKTELNIGSKDPPNFNTCTECKNQVCNLCGFNPTPHSTEIQEWLCLNCQTQRA [L41S]: the abundance fitness turned out to be 0.033 ± 0.093. With TCPLCKTELNIGSKDPPNFNTCTECDNQVCNLCGFNPTPHLTEIQEWLCLNCQTQRA [K26D], the abundance fitness was found to be 0.071 ± 0.13. As for TCPLCKTELNIGSKDPPNFNTCTECMNQVCNLCGFNPTPHLTEIQEWLCLNCQTQRA [K26M], the abundance fitness was 0.335 ± 0.17.

TCPLCKTELNIGSKDPPNFNTCTECVNQVCNLCGFNPTPHLTEIQEWLCLNCQTQRA [K26V]: the abundance fitness was determined as 0.065 ± 0.097.
